In test [1] the target is T1, mouse IL-10Rα on splenocytes (mouse, UniProt Q61727 17-575).
T1 construct: whole, on cells
T1 sequence (looked up): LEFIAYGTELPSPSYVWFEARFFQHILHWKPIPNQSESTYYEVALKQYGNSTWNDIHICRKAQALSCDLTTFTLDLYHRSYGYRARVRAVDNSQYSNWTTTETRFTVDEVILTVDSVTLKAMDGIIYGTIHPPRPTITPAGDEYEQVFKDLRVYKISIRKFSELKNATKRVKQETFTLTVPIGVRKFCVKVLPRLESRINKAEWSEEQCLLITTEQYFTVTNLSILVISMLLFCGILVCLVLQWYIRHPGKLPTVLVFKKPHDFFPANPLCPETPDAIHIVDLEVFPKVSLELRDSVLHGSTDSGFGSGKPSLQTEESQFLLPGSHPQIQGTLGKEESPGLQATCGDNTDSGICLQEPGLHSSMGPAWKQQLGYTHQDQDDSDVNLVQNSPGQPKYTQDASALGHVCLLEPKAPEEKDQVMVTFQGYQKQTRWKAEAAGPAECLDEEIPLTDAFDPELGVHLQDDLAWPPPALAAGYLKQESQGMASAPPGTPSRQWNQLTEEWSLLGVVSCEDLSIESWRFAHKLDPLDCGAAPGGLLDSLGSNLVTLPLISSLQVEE
The test can be described thus: flow cytometry on splenocytes. On the technique in general: Flow cytometry measures light scatter and fluorescence of single cells or particles in a stream.

In test [2] the target is T2, cynomolgus macaque IL-10Rα extracellular domain fused to the Fc portion of human IgG1 (cynomolgus macaque).
T2 construct: The entry includes the signal peptide; also called cynomolgus IL-10Rα:hFc; cyIL-10Rα
The test can be described thus: ELISA, coated cynomolgus IL-10Rα:hFc. An excerpt: Titration of anti-IL-10Rα antibodies binding to coated chimp or cynomolgus IL-10Rα:hFc. Binding was detected with anti-human kappa-HRP, anti-mouse IgG-HRP, or anti-rat IgG-HRP. Different anti-rat-IgG HRP and anti-mouse IgG antibodies were used to generate the data in panels A and B. The nature of these secondary antibodies can affect the results and lead to different maximum binding (BMAX). The BMAX from these studies are described in Table 5.
IL-10Rα Specific Antibody Detection ELISA: Antibody titers, specificity, and production by hybridomas were determined by ELISA. In brief, 96 well flat bottom Maxisorb plates were coated with 50 μl of hIL-10Rα (R&D Systems, Minneapolis, Minn.) at 1 μg/ml in carbonate buffer (pH 9.4) overnight at 4° C. or at 37° C. for 1 hour. After washing three times with PBS/0.05% Tween 20, plates were blocked with Superblock blocking buffer in TBS (Pierce) at room temperature for 30 minutes. The serum, supernatant, or purified antibody was diluted in blocking buffer, added to the wells, and the plates were incubated for 1 hour at room temperature. The plates were washed 3 times with PBS/0.05% Tween 20 and peroxidase-conjugated goat anti-human IgG (Fcγ specific), anti-rat IgG, or anti-mouse IgG detection antibodies (Jackson Immunoresearch) were added at a dilution of 1:5000. Multiple lots of anti-rat and anti-mouse IgG antibodies were used in different assays. […] Following a 1 hour incubation at room temperature, the plates were washed and the TMB (Sigma) substrate was added and incubated at room temperature for 5 to 10 minutes. The reaction was stopped with H₂SO₄ (LabChem) and the optical density was measured at 450 nm by a microplate reader. A second ELISA protocol using soluble human, chimp and cynomolgus IL-10Rα:hFc recombinant proteins as the coating antigens was also employed. In this assay, binding of specific human IgG were detected with a peroxidase labeled sheep anti-human kappa antibody (The Binding Site, Birmingham, UK).
Background: ELISA stands for enzyme-linked immunosorbent assay.

Test [3] deals with T3, cynomolgus macaque IL-10Rα on PBMC (cynomolgus macaque, UniProt Q13651 22-578 (human entry)).
T3 construct: Full-length entry cloned from cynomolgus T cells; endogenous on primary PBMC in the assays; also called IL-10Rα on the surface of cynomolgus lymphocytes and monocytes
T3 chain: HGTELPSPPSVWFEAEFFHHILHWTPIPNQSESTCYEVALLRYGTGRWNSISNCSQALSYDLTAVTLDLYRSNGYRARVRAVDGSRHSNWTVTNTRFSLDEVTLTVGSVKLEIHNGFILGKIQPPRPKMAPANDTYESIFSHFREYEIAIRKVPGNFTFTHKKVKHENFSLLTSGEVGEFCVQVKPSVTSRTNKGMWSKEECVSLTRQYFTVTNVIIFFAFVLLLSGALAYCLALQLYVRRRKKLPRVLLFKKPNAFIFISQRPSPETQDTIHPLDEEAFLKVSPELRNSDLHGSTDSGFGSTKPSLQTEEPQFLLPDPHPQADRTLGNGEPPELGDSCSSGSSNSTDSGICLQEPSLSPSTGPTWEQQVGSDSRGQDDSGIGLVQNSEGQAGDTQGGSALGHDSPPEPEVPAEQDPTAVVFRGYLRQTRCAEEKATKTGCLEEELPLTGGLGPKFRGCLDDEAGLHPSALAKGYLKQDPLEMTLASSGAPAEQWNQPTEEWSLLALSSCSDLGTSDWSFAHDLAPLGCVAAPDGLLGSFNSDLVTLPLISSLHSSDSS
The test can be described thus: flow cytometry on cynomolgus macaque PBMC, lymphocyte gate; competitor: recombinant human IL-10Rα [C].

B1: 136C5 (antibody, V domains shown)
VH: EVQLVESGGGLVQPGGSLRLSCAASGFTFSSYSMNWVRQAPGKGLEWVSYISTGSSTIYYADSVKGRFTISRDNAKNSLYLQMNSLRDEDTAVYYCARENYYGSGSYEDYFDYWGQGTLVTVSS
VL: EIVLTQSPATLSLSPGERATLSCRASQSVSSYLAWYQQKPGQAPRLLIYDASNRATGIPARFSGSGSGTDFTLTISSLEPEDFAVYYCQQRSNWPIFTFGPGTKVDIK
notes: Hybridoma antibody, human IgG1, kappa light chain; also called human anti-human IL-10Rα monoclonal antibody 136C5; hybridoma deposit PTA-9131
As for B1, the results for the binding result in test [1] and in test [3] were “no binding” and “binds”, respectively. This molecule had a BMAX in test [2] of 1.64 OD.

B2: 136C8 (antibody, V domains shown)
VH: EVQLVESGGGLVQPGGSLRLSCAASGFTFSSYSMNWVRQAPGKGLEWVSYISTRSSTIYYADSVKGRFTISRDNAKNSLYLQMNSLRDEDTAVYYCARENYYGSGSYEDYFDYWGQGTLVTVSS
VL: EIVLTQSPATLSLSPGERATLSCRASQSVSSYLAWYQQKPGQAPRLLIYDASNRATGIPARFSGSGSGTDFTLTISSLEPEDFAVYYCQQRSNWPIFTFGPGTKVDIK
notes: Hybridoma antibody, human IgG2, kappa light chain; also called human anti-human IL-10Rα monoclonal antibody 136C8; hybridoma deposit PTA-9132
As for B2, the binding result in test [1] was “no binding”; in test [3], “binds”. In test [2], this molecule yielded a BMAX of 1.66 OD.

The values are drawn from US20110144312A1 (Kyowa Kirin, published 2011).
